Test results as given in patent US20220370565A1 (SHANGHAI INSTITUTE OF BIOLOGICAL PRODCCTS CO., LTD., priority 2019, published 2022).

Assays:
[1] = half-life in rats; type: in vivo
[2] = test system: Hep3B; assay: SRB method, proliferation of tumor cells in vitro, Hep3B; type: cell-based; details: Hep3B (Liver cancer), 120 hours of drug action
Procedure: (§1) Sulfonyl rhodamine B protein staining method (SRB method) was used to evaluate the effects of using PEG-interferon alone or in combination with other drugs on the proliferation of tumor cells in vitro.
(§2) A certain number of cells in logarithmic growth phase were seeded in 96-well culture plates. After 24 hours of adherent growth, different concentrations (final concentrations of 1, 3, 10, 30, 100, 300, 1,000, 3,000, 10,000 nM) of drugs were added. After 120 hours of drug action, cells were fixed with trichloroacetic acid. Then stained with SRB solution; finally, Tris solution was added to dissolve SRB, and OD value was measured at a wavelength of 510 nm by a microplate reader.

[3] = test system: human liver cancer Huh-7; assay: subcutaneous transplanted tumors of human liver cancer Huh-7 in nude mice; type: in vivo; details: for % T/C D 17 / Mean tumor volume D 17 SEM / Tumor inhibition rate % D 17 / Mean tumor volume D 0 SEM: D 0, 3, 7, 10, 14; for Mean tumor volume D 0 SEM: baseline at grouping
Procedure: (§3) The indicators of tumor inhibition experiments in mice were to investigate the effect of drugs on tumor growth, and the specific indicators were T/C % or the rate of tumor growth inhibition TGI (%).
(§4) The diameter of the tumor was measured with a vernier caliper twice a week, and the formula for calculating the tumor volume (V) was: V=½xaxb^2, wherein a and b represented the length and width, respectively.
(§5) T/C(%)=(T−T0)/(C−C0)×100,
(§6) If a tumor was smaller than the initial volume, i.e., T<T0 or C<C0, it was defined as partial regression (PR) of the tumor; if a tumor disappeared completely, it was defined as complete regression (CR) of the tumor.
(§7) At the end of the experiment (e.g., D21), reaching the experimental endpoint, or the tumor volume reached 1,500 mm^3, the animals were sacrificed after CO2 anesthesia, and then the tumors were dissected and photographed.
Nude mice were subcutaneously inoculated with 6×10^6 human liver cancer Huh-7 cells. After the tumor grew to 100-150 mm^3, the animals were grouped according to tumor volume (D0). Mice were administered subcutaneously (SC) or intravenously (IV), twice a week (BIW); the administration volume was 10 mL/kg; the solvent group was administered with the same volume of “solvent” (normal saline); specific dosage and administration regimen were shown in Table 2. The tumor volumes were measured twice a week, the mice were weighed, and the data were recorded.
(§8) Two-tailed Student's t-test was used to compare tumor volumes between the two groups, and P<0.05 was defined as a statistically significant difference.

[4] = test system: human breast cancer BT-474; assay: subcutaneous transplanted tumors of human breast cancer BT-474 in nude mice; type: in vivo; details: for % T/C D 20 / Mean tumor volume D 20 SEM / Tumor inhibition rate % D 20 / Mean tumor volume D 0 SEM: D 0, 3, 7, 10, 14, 17; for Mean tumor volume D 0 SEM: baseline at grouping
Procedure: as §3, §4, §5, §6, §7
Nude mice were subcutaneously inoculated with 1×10^7 human breast cancer BT-474 cells. After the tumor grew to 100-150 mm^3, the animals were grouped according to tumor volume (D0). Mice were administered subcutaneously (SC) or intravenously (IV), twice a week (BIW); the administration volume was 10 mL/kg; the solvent group was administered with the same volume of “solvent” (normal saline); specific dosage and administration regimen were shown in Table 3. The tumor volumes were measured twice a week, the mice were weighed, and the data were recorded.
as §8

[5] = test system: N87; assay: SRB method, proliferation of tumor cells in vitro, N87; type: cell-based, human; details: N87 (Gastric cancer), 120 hours of drug action
Procedure: as §1, §2

[6] = test system: HCC1806; assay: SRB method, proliferation of tumor cells in vitro, HCC1806; type: cell-based; details: HCC1806 (Breast cancer), 120 hours of drug action
Procedure: as §1, §2

[7] = test system: HGC27; assay: SRB method, proliferation of tumor cells in vitro, HGC27; type: cell-based; details: HGC27 (Gastric cancer), 120 hours of drug action
Procedure: as §1, §2

[8] = test system: MCF-7; assay: SRB method, proliferation of tumor cells in vitro, MCF-7; type: cell-based; details: MCF-7 (Breast cancer), 120 hours of drug action
Procedure: as §1, §2

[9] = test system: BT474; assay: SRB method, proliferation of tumor cells in vitro, BT474; type: cell-based, human; details: BT474 (Breast cancer), 120 hours of drug action
Procedure: as §1, §2
Breast cancer cells BT474 were used, and the corresponding inhibition rate (%) was calculated.

[10] = test system: HepG2; assay: SRB method, proliferation of tumor cells in vitro, HepG2; type: cell-based; details: HepG2 (Liver cancer), 120 hours of drug action
Procedure: as §1, §2

[11] = test system: Huh-7; assay: SRB method, proliferation of tumor cells in vitro, Huh-7; type: cell-based, human; details: Huh-7 (Liver cancer), 120 hours of drug action
Procedure: as §1, §2

[12] = test system: NCI-H292; assay: SRB method, proliferation of tumor cells in vitro, NCI-H292; type: cell-based; details: NCI-H292 (Lung cancer), 120 hours of drug action
Procedure: as §1, §2

[13] = half-life in cynomolgus monkeys; type: in vivo
[14] = test system: AGS; assay: SRB method, proliferation of tumor cells in vitro, AGS; type: cell-based; details: AGS (Gastric cancer), 120 hours of drug action
Procedure: as §1, §2

[15] = test system: human gastric cancer NCI-N87; assay: subcutaneous transplanted tumors of human gastric cancer NCI-N87 in nude mice; type: in vivo; details: D 0, 3, 7, 10, 14, 17; for Mean tumor volume D 0 SEM: baseline at grouping
Procedure: as §3, §4, §5, §6, §7
Nude mice were subcutaneously (SC) inoculated with 6×10^6 human gastric cancer NCI-N87 cells. After the tumor grew to 100-150 mm^3, the animals were grouped according to tumor volume (D0). Mice were administered subcutaneously (SC) or intravenously (IV), twice a week (BIW); the administration volume was 10 mL/kg; the solvent group was administered with the same volume of “solvent” (normal saline); specific dosage and administration regimen were shown in Table 1. The tumor volumes were measured twice a week, the mice were weighed, and the data were recorded.
as §8

[16] = test system: A549; assay: SRB method, proliferation of tumor cells in vitro, A549; type: cell-based; details: A549 (Lung cancer), 120 hours of drug action
Procedure: as §1, §2

[17] = PEGylated (PEG) interferon 0.1 mg/kg SC
[18] = PEGylated (PEG) interferon 1 mg/kg SC
[19] = PEGylated (PEG) interferon 10 mg/kg SC
[20] = PEGylated (PEG) interferon 10 mg/kg SC, 2 times a week, 6 times in total, D20

B1: PEGylated (PEG) interferon: recombinant human interferon α1b modified with a single PEG of about 20,000 Daltons; lyophilized powder injection, Shanghai Institute of Biological Products (protein, UniProt P01562 24-189, looked up)
Interferon alpha-1/13: CDLPETHSLDNRRTLMLLAQMSRISPSSCLMDRHDFGFPQEEFDGNQFQKAPAISVLHELIQQIFNLFTTKDSSAAWDEDLLDKFCTELYQQLNDLEACVMQEERVGETPLMNADSILAVKKYFRRITLYLTEKKYSPCAWEVVRAEIMRSLSLSTNLQERLRRKE
modifications: single 20 kDa PEG
notes: recombinant human interferon α1b modified with a single PEG of about 20,000 Daltons; lyophilized powder injection, Shanghai Institute of Biological Products
In the case of B1, the half-life [1] is reported as 13.98 h, the “Inhibition rate (%)@100 μg/mL” value [2] is reported as 58.4% and the “% T/C D 17” value [3, 17] is reported as 110%. The “Mean tumor volume D 17 SEM” value [3, 17] was 3188.0 ± 282.5 mm^3, the “Tumor inhibition rate % D 17” value [3, 17] was −10% and the “Mean tumor volume D 0 SEM” value [3, 17] was 117.7 ± 2.0 mm^3. For the same molecule, the “% T/C D 17” value [3, 18] was 107%, the “Mean tumor volume D 17 SEM” value [3, 18] was 3110.6 ± 438.0 mm^3 and the “Tumor inhibition rate % D 17” value [3, 18] was −7%. For the same molecule, the “Mean tumor volume D 0 SEM” value [3, 18] was 119.8 ± 2.6 mm^3, the “% T/C D 17” value [3, 19] was 91% and the “Mean tumor volume D 17 SEM” value [3, 19] was 2681.9 ± 435.7 mm^3. The “Tumor inhibition rate % D 17” value [3, 19] was 9%, the “Mean tumor volume D 0 SEM” value [3, 19] was 123.8 ± 1.9 mm^3 and the “inhibitory effect on the growth of subcutaneous transplanted tumors” value ([3]; PEGylated (PEG) interferon 0.1, 1, 10 mg/kg, SC, 2 times a week, 5 times in total) was “no significant inhibitory effect”. For the same molecule, the “% T/C D 20” value [4, 17] was 34%, the “Mean tumor volume D 20 SEM” value [4, 17] was 422.2 ± 97.0 mm^3 and the “Tumor inhibition rate % D 20” value [4, 17] was 66%. The “Mean tumor volume D 0 SEM” value [4, 17] was 91.2 ± 1.3 mm^3, the “tumors regressed partially (PR)” value ([4]; PEGylated (PEG) interferon 1 mg/kg SC, 2 times a week, 6 times in total, D20) was 3/6 and the “% T/C D 20” value [4, 18] was 2%. For the same molecule, the “Mean tumor volume D 20 SEM” value [4, 18] was 115.7 ± 26.1 mm^3, the “Tumor inhibition rate % D 20” value [4, 18] was 98% and the “Mean tumor volume D 0 SEM” value [4, 18] was 94.1 ± 4.3 mm^3. The “tumors regressed completely (CR)” value [4, 20] was 2/6, the “tumors regressed partially (PR)” value [4, 20] was 4/6 and the “tumors regressed partially (PR)” value ([4]; PEGylated (PEG) interferon 10 mg/kg SC, 6 times in total, end of the experiment (D60)) was 4/6. For the same molecule, the “% T/C D 20” value [4, 19] was −56%, the “Mean tumor volume D 20 SEM” value [4, 19] was 41.4 ± 15.7 mm^3 and the “Tumor inhibition rate % D 20” value [4, 19] was 156%. For the same molecule, the “Mean tumor volume D 0 SEM” value [4, 19] was 94.8 ± 4.2 mm^3, the “Inhibition rate (%)@100 μg/mL” value [5] was 32.5% and the “Inhibition rate (%)@100 μg/mL” value [6] was 32.6%. The “Inhibition rate (%)@100 μg/mL” value [7] was 52.3%, the “Inhibition rate (%)@100 μg/mL” value [8] was 24.2% and the “Inhibition rate (%)@100 μg/mL” value [9] was 19.6%. The “Inhibition rate (%)@100 μg/mL” value [10] was 20.2%, the “Inhibition rate (%)@100 μg/mL” value [11] was 29.3% and the “Inhibition rate (%)@100 μg/mL” value [12] was 41.5%. The half-life [13] was 22.03 ± 3.32 h, the “Inhibition rate (%)@100 μg/mL” value [14] was 44.0% and the “% T/C D 21” value [15, 17] was 81%. For the same molecule, the “Mean tumor volume D 21 SEM” value [15, 17] was 817.1 ± 84.9 mm^3, the “Tumor inhibition rate % D 21” value [15, 17] was 19% and the “Mean tumor volume D 0 SEM” value [15, 17] was 112.7 ± 3.9 mm^3. For the same molecule, the “% T/C D 21” value [15, 18] was 68%, the “Mean tumor volume D 21 SEM” value [15, 18] was 712.4 ± 68.4 mm^3 and the “Tumor inhibition rate % D 21” value [15, 18] was 32%. For the same molecule, the “Mean tumor volume D 0 SEM” value [15, 18] was 117.4 ± 2.8 mm^3, the “% T/C D 21” value [15, 19] was 45% and the “Mean tumor volume D 21 SEM” value [15, 19] was 506.1 ± 33.0 mm^3. For the same molecule, the “Tumor inhibition rate % D 21” value [15, 19] was 55%, the “Mean tumor volume D 0 SEM” value [15, 19] was 112.3 ± 2.3 mm^3 and the “Inhibition rate (%)@100 μg/mL” value [16] was 33.7%.
